Results: article PMC6317306
Substitutions are numbered along the chain they refer to.

B1: HA-Nek2A (enzyme)
chain: MPSRAEDYEVLYTIGTGSYGRCQKIRRKSDGKILVWKELDYGSMTEAEKQMLVSEVNLLRELKHPNIVRYYDRIIDRTNTTLYIVMEYCEGGDLASVITKGTKERQYLDEEFVLRVMTQLTLALKECHRRSDGGHTVLHRDLKPANVFLDGKQNVKLGDFGLARILNHDTSFAKTFVGTPYYMSPEQMNRMSYNEKSDIWSLGCLLYELCALMPPFTAFSQKELAGKIREGKFRRIPYRYSDELNEIITRMLNLKDYHRPSVEEILENPLIADLVADEQRRNLERRGRQLGEPEKSQDSSPVLSELKLKEIQLQERERALKAREERLEQKEQELCVRERLAEDKLARAENLLKNYSLLKERKFLSLASNPELLNLPSSVIKKKVHFSGESKENIMRSENSESQLTSKSKCKDLKKRLHAAQLRAQALSDIEKNYQLKSRQILGMR
B2: HA-Nek2A-4D (enzyme)
chain: B1 chain with S356D, S365D, S406D, S438D

Biological target: FLAG-Cep85-6D (UniProt Q6P2H3)
Test: co-IP

| Binder | percent reduction of affinity against Nek2A-4A [%] |
| --- | --- |
| B1 | 50 |
| B2 | > 60 |
